# Experimental data published in patent US20240399042A1.
# Target: SARS-CoV-2 (2019-nCoV) Spike S1-His Recombinant Protein (HPLC-verified), Sino Biological Catalog Number 40591-V08H (SARS-CoV-2) (UniProt P0DTC2)
substance,measurement,value
Galanthus nivalis agglutinin (GNA) (from UniProt P30617 24-128),percent of S1 depleted at 15 minutes,> 90%
